Data taken from US20090010911A1, “METHODS AND COMPOSITIONS FOR AFFECTING CYCLOPHILIN A REGULATION OF KINASES IN MODULATING CELLULAR ACTIVITIES” (IOWA STATE UNIVERSITY RESEARCH FOUNDATION, INC., priority 2007, published 2009).

Target: T1, Itk LKD enzyme (Mus musculus, UniProt Q03526)
T1 construct: linker kinase domain (Itk LKD); made in house; host or cells: Sf9 insect cells (baculovirus), co-infected 1:1 with Lck baculovirus
T1 sequence (Q03526 344-625 limits assumed): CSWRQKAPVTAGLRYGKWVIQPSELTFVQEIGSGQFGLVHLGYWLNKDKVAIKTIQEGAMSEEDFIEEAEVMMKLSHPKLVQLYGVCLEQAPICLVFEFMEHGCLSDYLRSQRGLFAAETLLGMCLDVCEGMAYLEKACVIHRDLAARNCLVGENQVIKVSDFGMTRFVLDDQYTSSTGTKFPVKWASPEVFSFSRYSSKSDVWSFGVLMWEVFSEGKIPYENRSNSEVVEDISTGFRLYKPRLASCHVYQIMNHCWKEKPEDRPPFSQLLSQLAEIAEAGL
Assay: Quantitative kinase assay, Km determination for Peptide B and PLCγ1 SH2C-Peptide B fusion
Format: biochemical
Text: 5(a) Construction of a PLCγ1 SH2C-Peptide B fusion protein was based on alignment of Y783 within the PLCγ1 linker and the Tyr of Peptide B. The 14 amino acids of Peptide B were used to replace the last 16 amino acids of PLCγ1 SH2C-Y783-. The Tyr that is phosphorylated in each substrate is boxed. A mutant construct is also shown that contains serine in place of the tyrosine of peptide B. This site was mutated to serine instead of phenylalanine due to solubility problems associated with the Tyr to Phe mutation. 5(b) FLAG-tagged Itk LKD enzyme (1 μM) was incubated with 20 μM of the PLCγ1 SH2C-Peptide B fusion protein (lane 4) or 20 μM of the PLCγ1 SH2C-Peptide B(YS) mutant protein (lane 5) in an in vitro kinase assay. Lanes 1-3 are Itk enzyme alone, PLCγ1 SH2C-Peptide B substrate alone and PLCγ1 SH2C-Peptide B(YS) substrate alone, respectively, that have each been subjected to the same in vitro kinase assay conditions. (c & d) FLAG-tagged Itk LKD enzyme was incubated with increasing amounts of biotinylated PLCγ1 SH2C-Peptide B 5(c) or biotinylated Peptide B alone 5(d) in an in vitro kinase assay. 5(e) Kinetic parameters describing phosphorylation of Peptide B and the PLCγ1 SH2C-Peptide B fusion protein by Itk. Data shown are the average of two independent experiments.
Kinase assays and Western Blotting—Itk Full-length (FL), linker kinase domain (Itk LKD), kinase domain (Itk KD), full-length Btk or full-length Tec were incubated with the indicated substrates in an in vitro kinase assay buffer (50 mM Hepes pH 7.0, 10 mM MgCl2, 1 mM DTT, 1 mg/ml BSA, 1 mM Pefabloc and 200 μM ATP) for one hour at RT. The samples were boiled, separated by SDS-PAGE and transferred onto a PVDF membrane. The membranes were then blotted with either phosphotyrosine specific antibodies (anti-pY783 for PLCγ1 or pY223 Btk antibody used to detect pY180 in Itk, pY187 in Tec and pY223 in Btk (18)), an anti-phosphotyrosine antibody (4G10 from Upstate), or an anti-FLAG antibody (Sigma) and developed by standard chemiluminescence (Pierce) methods. Quantitative kinase assays (25): Km determinations for Peptide B [(Aminohexanoyl biotin-EQEDEPEGIYGVLF-NH2) (Anaspec Inc.)] and the biotinylated PLCγ1 SH2C-Peptide B fusion were carried out by incubating purified Itk LKD enzyme in reaction buffer (50 mM Hepes pH 7.0, 10 mM MgCl2, 1 mM DTT, 1 mg/ml BSA, 1 mM Pefabloc SC (4-(2-aminoethyl)-benzenesulfonyl-fluoride) and 200 μM ATP) and 5 μCi [^32P] ATP (GE Healthcare) at room temperature. Peptide B concentration was varied between 0-400 μM and PLCγ1 SH2C-Peptide B fusion concentration was varied between 0-80 μM. The enzyme concentration used for kinetic analysis was 0.9 μM. Each assay was done in duplicate. […]

increase in substrate affinity (compared to Peptide B alone): 15 fold
B1: SH2-Peptide B fusion: PLCγ1 SH2C domain covalently linked to the amino terminus of Peptide B, biotinylated fusion protein (protein)
chain: QTNAHESKEWYHASLTRAQAEHMLMRVPRDGAFLVRKRNEPNSYAISFRAEGKIKHCRVQQEGQTVMLGNSEFDSLVDLISYYEKHPLYRKMKLRYPINEEALEKIGTAEPDFGAEQEDEPEGIYGVLF
modifications: left off: things letters cannot carry
notes: PLCγ1 SH2C domain covalently linked to the amino terminus of Peptide B, biotinylated fusion protein
better substrate (kcat/Km) (compared to Peptide B alone): 7 fold | kcat value, change on attachment of PLCγ1 SH2C domain to Peptide B (compared to Peptide B alone): only changed to a small extent | Km (phosphorylation by Itk LKD enzyme 0.9 μM, 200 μM ATP, room temperature): 5.64 µM
